The source of these data is paper doi:10.1101/2020.12.09.418111.

The data set deals with T1, Kaiso without BTB/POZ domain, GST fusion (UniProt Q86T24 113-672).
T1 sequence: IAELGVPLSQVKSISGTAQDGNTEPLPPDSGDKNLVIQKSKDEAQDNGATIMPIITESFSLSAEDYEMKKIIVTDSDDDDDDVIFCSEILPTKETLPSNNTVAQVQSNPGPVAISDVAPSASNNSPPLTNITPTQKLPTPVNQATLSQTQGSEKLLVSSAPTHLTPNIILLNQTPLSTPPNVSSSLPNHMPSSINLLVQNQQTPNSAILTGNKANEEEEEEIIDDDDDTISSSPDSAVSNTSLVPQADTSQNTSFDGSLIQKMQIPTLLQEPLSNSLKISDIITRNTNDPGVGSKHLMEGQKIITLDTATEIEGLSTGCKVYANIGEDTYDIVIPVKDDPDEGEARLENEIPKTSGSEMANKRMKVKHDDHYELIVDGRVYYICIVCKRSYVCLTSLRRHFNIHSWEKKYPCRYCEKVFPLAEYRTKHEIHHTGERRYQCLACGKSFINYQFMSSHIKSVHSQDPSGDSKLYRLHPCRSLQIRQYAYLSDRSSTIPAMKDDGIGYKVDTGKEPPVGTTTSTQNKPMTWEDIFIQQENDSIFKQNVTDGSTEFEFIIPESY
The experiment in a line: EMSA.

B1: met-SM-FAM / met-SM methylated probe (dsDNA)
DNA 1: GCAGCCGCGCCCAACGCTGGGAGATC
DNA 2: TCCCCAGCGTTGGGCGCGGCTGCGATC
modifications: 5-methylcytosine (printed meC) at strand 1 positions 6, 8, 15 and strand 2 positions 8, 15, 17
With B1, the binding result is on record as “binds”.
